Assay [1] addresses T1, Neogenin (full-length, 180 kDa) (chick, UniProt Q90610 1-1443).
T1 construct: Endogenous Neogenin of chick brain membranes, retinal axons and tecta, or Neogenin transfected into HEK293 cells; in Western blots it stood denatured
T1 sequence: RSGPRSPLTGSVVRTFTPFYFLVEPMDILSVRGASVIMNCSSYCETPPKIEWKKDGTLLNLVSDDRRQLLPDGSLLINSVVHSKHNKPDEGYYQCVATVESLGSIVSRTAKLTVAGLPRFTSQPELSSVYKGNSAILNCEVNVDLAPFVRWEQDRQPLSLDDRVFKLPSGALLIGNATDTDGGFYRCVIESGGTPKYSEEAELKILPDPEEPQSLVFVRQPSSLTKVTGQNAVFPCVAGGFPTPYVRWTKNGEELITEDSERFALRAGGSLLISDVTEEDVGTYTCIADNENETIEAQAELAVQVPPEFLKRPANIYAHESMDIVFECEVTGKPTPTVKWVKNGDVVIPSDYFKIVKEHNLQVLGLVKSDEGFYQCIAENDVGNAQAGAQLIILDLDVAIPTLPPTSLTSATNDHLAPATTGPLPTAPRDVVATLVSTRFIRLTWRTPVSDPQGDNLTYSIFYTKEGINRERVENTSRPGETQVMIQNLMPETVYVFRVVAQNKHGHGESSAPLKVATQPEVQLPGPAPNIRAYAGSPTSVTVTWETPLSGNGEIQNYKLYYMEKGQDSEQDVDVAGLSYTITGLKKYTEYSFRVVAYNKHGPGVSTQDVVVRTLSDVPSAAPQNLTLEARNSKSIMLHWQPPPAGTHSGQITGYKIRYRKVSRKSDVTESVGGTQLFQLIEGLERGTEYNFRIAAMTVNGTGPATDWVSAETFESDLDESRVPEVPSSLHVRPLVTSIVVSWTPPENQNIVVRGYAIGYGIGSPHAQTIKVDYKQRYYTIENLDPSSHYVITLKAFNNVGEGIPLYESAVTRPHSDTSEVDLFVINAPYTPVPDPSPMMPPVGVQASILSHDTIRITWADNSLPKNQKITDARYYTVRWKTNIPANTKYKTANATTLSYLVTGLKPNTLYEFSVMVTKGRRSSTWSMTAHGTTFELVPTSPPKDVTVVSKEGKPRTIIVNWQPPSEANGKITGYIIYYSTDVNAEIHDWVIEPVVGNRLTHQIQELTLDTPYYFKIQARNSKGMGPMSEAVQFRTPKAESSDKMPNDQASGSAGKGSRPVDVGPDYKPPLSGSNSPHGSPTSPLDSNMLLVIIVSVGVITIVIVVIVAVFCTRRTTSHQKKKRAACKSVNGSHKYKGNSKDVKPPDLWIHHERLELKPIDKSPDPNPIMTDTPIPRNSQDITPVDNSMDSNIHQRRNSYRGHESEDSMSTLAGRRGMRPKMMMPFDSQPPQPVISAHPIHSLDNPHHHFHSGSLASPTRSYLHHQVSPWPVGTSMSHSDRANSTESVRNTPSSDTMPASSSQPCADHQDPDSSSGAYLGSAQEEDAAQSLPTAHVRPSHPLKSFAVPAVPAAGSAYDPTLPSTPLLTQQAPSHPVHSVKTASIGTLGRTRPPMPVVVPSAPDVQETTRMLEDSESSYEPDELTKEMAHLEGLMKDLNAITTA
Description: cell-based or functional assay.

The target in assay [2] is T2, His-tagged 4Ig-domain of Neogenin (Gallus gallus, UniProt Q90610 1-383).
T2 construct: Secreted from transfected cells, purified on Ni-NTA; also called His-4Ig; Neogenin-4Ig; not shown: 6-His tag at the N-terminus; myc and 6-His tags of the pSectag 2B vector at the C-terminus
T2 sequence: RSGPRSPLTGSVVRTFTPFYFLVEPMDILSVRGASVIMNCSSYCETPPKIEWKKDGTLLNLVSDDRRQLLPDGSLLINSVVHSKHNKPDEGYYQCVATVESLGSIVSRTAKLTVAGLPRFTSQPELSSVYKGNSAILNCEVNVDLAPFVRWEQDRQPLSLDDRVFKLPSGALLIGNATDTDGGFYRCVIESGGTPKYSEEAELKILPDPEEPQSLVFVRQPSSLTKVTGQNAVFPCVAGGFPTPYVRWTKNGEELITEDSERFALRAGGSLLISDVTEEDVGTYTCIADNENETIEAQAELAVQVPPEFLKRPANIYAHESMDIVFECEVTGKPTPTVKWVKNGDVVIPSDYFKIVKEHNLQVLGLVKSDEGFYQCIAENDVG
Description: plate binding assay, AP-tagged fragment on coated His-tagged 4Ig-domain (FIG. 17C). How it is done: (§1) Using a 96-well microtiter plate (Corning Incorporated), wells were coated with 100 μl (10 μg/mL) of Poly-L-Lysine at 4° C. overnight. Wells were then washed three times with 100 μl of PBST (+0.02% Tween). 50 μl (2.5 μg/mL) of His-tagged: Full-length Neogenin; 4 Ig Neogenin; and FNIII Neogenin were coated onto each well for 1 hour at 37° C. Following three washes of 100 μl PBST, each well was then blocked with 300 μl of 3% BSA in PBST for 1 hour at 37° C. 50 μl (1.0 μg/mL) AP-tagged: N-RGMa (28-73); N-RGMa (28-54); N-RGMa (40-62); N-RGMa (54-73); N-RGMa (54-62) in 1% BSA+PBST was then added to each well and incubated at 37° C. for 1 hour. Each well was washed thoroughly three times with 100 μl PBST followed by subsequent equilibration of each well with Alkaline Phosphatase (AP) developing buffer (100 mM NaHCO₃, 1 mM MgCl₂). The reaction was developed using AP developing buffer supplemented with, p-nitrophenyl phosphate (pNPP)(Sigma-Aldrich) and allowed to develop until color development. The reaction was stopped with the addition of 50 μl (0.1M) NaOH. The absorbance of each reaction was measured using a microplate autoreader (BIO-TEK Instruments Inc.) at […] wavelength. […]

The target of assay [3] is T2, His-tagged 4Ig-domain of Neogenin. Description: plate binding assay, AP-tagged fragments on coated His-tagged Neogenin proteins (FIG. 17C). How it is done:
as §1

Assay [4] addresses T3, 6FNIII-domain of Neogenin fused to alkaline phosphatase (Gallus gallus, UniProt Q90610 429-1036).
T3 construct: also called 6FNIII-AP; fibronectin domain; not shown: alkaline phosphatase (AP)
T3 sequence: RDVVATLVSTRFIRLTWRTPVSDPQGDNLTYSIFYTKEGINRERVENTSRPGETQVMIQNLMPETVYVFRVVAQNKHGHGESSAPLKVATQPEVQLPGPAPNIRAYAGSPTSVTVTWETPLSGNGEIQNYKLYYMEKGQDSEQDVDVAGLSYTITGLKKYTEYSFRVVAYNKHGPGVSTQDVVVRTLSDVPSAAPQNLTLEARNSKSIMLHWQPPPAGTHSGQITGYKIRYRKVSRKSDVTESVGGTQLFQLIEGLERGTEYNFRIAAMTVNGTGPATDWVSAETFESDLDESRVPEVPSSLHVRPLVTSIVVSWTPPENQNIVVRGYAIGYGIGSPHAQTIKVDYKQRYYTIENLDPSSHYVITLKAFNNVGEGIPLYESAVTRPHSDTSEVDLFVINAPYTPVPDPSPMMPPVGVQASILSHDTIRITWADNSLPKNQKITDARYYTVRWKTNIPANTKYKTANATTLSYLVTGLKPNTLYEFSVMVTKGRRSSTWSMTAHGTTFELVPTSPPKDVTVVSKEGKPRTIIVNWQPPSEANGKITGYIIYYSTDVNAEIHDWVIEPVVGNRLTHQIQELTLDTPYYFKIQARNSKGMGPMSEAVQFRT
Description: ELISA with AP fusions of Neogenin domains. (An ELISA detects its analyte on a solid surface through an enzyme-linked reagent.)

Assay [5] concerns the target T1, Neogenin (full-length, 180 kDa). Description: told in a figure legend; assay not named there (peptide also used on beads in the pull-down of FIG. 2B).
Assay [6] has as its target T3, 6FNIII-domain of Neogenin fused to …. Description: binding assay, 4Ig-AP and 6FNIII-AP on wells coated with RGMa proteins (FIG. 9B).
For assay [7], the target named is T4, 4Ig-domain of Neogenin fused to alkaline phosphatase (Gallus gallus, UniProt Q90610 1-383).
T4 construct: also called 4Ig-AP; not shown: alkaline phosphatase (AP)
T4 sequence: T2 sequence
Description: ELISA with AP fusions of Neogenin domains.

No end group written: not given here.

Molecule “RGMa on the cell membrane (from UniProt Q8JG54 150-404) (ligand)” came in with an intensity correlation quotient (co-localization in growth cones, immunofluorescence) in assay [1] of 0.32.

B1: N-RGMa (54-62aa), AP-tagged (peptide)
chain: TPEFCTALR
modifications: also: alkaline phosphatase tag, sequence and position not given here
notes: not shown: alkaline phosphatase tag of the Psectag2B-AP plasmid
For the molecule B1, in assay [2], the binding result is given as “no binding (tested: 1.0 µg/mL)”.

B2: N-RGMa (40-62aa), AP-tagged (peptide)
chain: WAATSGSHHLGAEETPEFCTALR
modifications: also: alkaline phosphatase tag, sequence and position not given here
notes: as for B1
On to B2, for which the binding result in assay [3] is on record as “binds”.

B3: N-Raft peptide (amino acids 28-73 of RGMa), His-tagged (peptide)
peptide: SPCKILKCNSEFWAATSGSHHLGAEETPEFCTALRAYAHCTRRTAR
notes: also called N-RGMa^28-73; N-RGMa28-73; not shown: 6-His tag at the N-terminus
With B3, in assay [4], the binding result is “no binding”.

B4: N-RGMa (28-54aa), AP-tagged (peptide)
chain: SPCKILKCNSEFWAATSGSHHLGAEET
modifications: cysteine pairing not given here; also: alkaline phosphatase tag, sequence and position not given here
notes: as for B1
In the case of B4, the binding result in assay [2] is on record as “no binding (tested: 1.0 µg/mL)”.

B5: N-RGMa (54-73aa), AP-tagged (peptide)
chain: TPEFCTALRAYAHCTRRTAR
modifications: cysteine pairing not given here; also: alkaline phosphatase tag, sequence and position not given here
notes: also called N-RGMa (55-73aa); not shown: alkaline phosphatase tag of the Psectag2B-AP plasmid
Regarding B5, the binding result in assay [3] is on record as “binds”.

B6: N-RGMa^50-99 control peptide (amino acid residues 50-99 of RGMa) (peptide)
peptide: GAEETPEFCTALRAYAHCTRRTARTCRGDLAYHSAVHGIDDLMVQHNCSK
notes: not shown: 6-His tag at the N-terminus
As for B6, the binding result in assay [5] is “no binding”.

B7: N-inh peptide (amino acids 77-113 of RGMa), His-tagged (peptide)
peptide: GDLAYHSAVHGIDDLMVQHNCSKDGPTSQPRLRTLPP
notes: not shown: 6-His tag at the N-terminus; myc tag and 6-His tag at the C-terminus
For the molecule B7, the binding result in assay [6] is listed as “binds”; in assay [7] it was “no binding”.
